Data: US20210324102A1 (ACROIMMUNE BIOTECH, published 2021)

Key:
[1] = target: human CD38 on cells (CHO-hCD38 / wild-type, and human tumor cell lines with positive CD38 expression) (human, UniProt P28907 1-300); experiment: cell-based or functional assay
[2] = target: T1, cynomolgus macaque CD38 on CHO cells (CHO-cynomolgus CD38) (cynomolgus macaque, UniProt Q5VAN0 1-301); experiment: flow cytometry on CHO-cynomolgus CD38 cells
T1 construct: whole, on cells; also called CHO/mkCD38; mkCD38

[3] = target: T2, recombinant cynomolgus macaque CD38-his protein (Sino Biological Inc.) (cynomolgus macaque, UniProt Q5VAN0 44-301, limits assumed); experiment: direct ELISA, plate coated with recombinant cynomolgus macaque CD38-his protein
T2 construct: Bought protein; also called recombinant cynomolgus macaque CD38 protein; cynomolgus macaque CD38 protein; not shown: his tag

EC50 of CDC activity, Daudi target cells, 10% rabbit serum [1]	binding result [2]	binding result [3]	Binder
~0.03 µg/mL	binds		murine monoclonal antibody m29 (antibody, mouse IgG2b, V domains shown, also called mouse monoclonal antibody m29; m29 monoclonal antibody) VH: QVQLQQSVSELRSPGSSVKLSCKDFDSEVFPTSYMSWVRQKPGHGFEWIGDILPNIGRIFYGEKFEDKAKLDADTVSNTAYLELTSLSSEDSAIYYCAREAYGSILGYWGQGTLVAVSA VL: DIVMTQTPLSLPVGLGDQASISCRSSQSLLHSNGNTYLHWYLQKPGQSPKLLIYKVSNRFSGVPDRFSGSGSGTDFTLKISRVEAEDLGVYFCSQSSHLPWTFGGGTKLEIK
~0.03 µg/mL	binds	binds	human-mouse chimeric antibody ch29G (antibody, V domains shown, not shown: human IgG1 heavy chain constant region; human kappa light chain constant region (C-domain)) VH: QVQLQQSVSELRSPGSSVKLSCKDFDSEVFPTSYMSWVRQKPGHGFEWIGDILPNIGRIFYGEKFEDKAKLDADTVSNTAYLELTSLSSEDSAIYYCAREAYGSILGYWGQGTLVAVSA VL: DIVMTQTPLSLPVGLGDQASISCRSSQSLLHSNGNTYLHWYLQKPGQSPKLLIYKVSNRFSGVPDRFSGSGSGTDFTLKISRVEAEDLGVYFCSQSSHLPWTFGGGTKLEIK
0.1 µg/mL			Daratumumab (antibody, V domains shown) VH: EVQLLESGGGLVQPGGSLRLSCAVSGFTFNSFAMSWVRQAPGKGLEWVSAISGSGGGTYYADSVKGRFTISRDNSKNTLYLQMNSLRAEDTAVYFCAKDKILWFGEPVFDYWGQGTLVTVSS VL: not shown
